# Measurements published in US20180282719A1 (published 2018).
# Changes are numbered by the printed parent chain.
# T1: recombinant soluble human IL-6 receptor (SR344) (human, UniProt P08887 20-344, biotinylated (sites not given) where immobilized via streptavidin or used in phage ELISA)
# T1 construct: also called soluble IL-6 receptor; membrane-type IL-6 receptor (when biotinylated and immobilized on the chip)
# T1 sequence (looked up): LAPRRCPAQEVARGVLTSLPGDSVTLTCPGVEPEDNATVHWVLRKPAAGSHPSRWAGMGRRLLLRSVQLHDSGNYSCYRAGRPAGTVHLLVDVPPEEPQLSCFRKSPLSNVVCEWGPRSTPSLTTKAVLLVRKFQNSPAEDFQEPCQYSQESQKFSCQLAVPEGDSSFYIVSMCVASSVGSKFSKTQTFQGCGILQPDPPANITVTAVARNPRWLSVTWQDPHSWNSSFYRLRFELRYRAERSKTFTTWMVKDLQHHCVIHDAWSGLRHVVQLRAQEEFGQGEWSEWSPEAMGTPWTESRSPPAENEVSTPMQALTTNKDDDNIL
# B1: H3pI/L73 (antibody, IgG1, V domains shown)
# VH: QVQLQESGPGLVKPSETLSLTCAVSGHSISHDHAHSWVRQPPGEGLEWIGYISYSGITNYNPSLKGRVTISRDTSKNQFSLKLSSVTAADTAAYYCARSLARTTAMDYWGEGTLVTVSS
# VL: DIQMTQSPSSLSASVGDSVTITCQASQHISSHLNWYQQKPGKAPELLIYYGSHLHSGVPSRFSGSGSGTDFTFTISSLEAEDAATYYCGQGNRLPYTFGQGTKVEIE
# notes: tested as IgG1; also called H3pI/L73-IgG1; H3pl/L73
# B2: humanized PM1 antibody (wild type, WT) (antibody, human IgG1, kappa, V domains shown)
# VH: QVQLQESGPGLVRPSQTLSLTCTVSGYSITSDHAWSWVRQPPGRGLEWIGYISYSGITTYNPSLKSRVTMLRDTSKNQFSLRLSSVTAADTAVYYCARSLARTTAMDYWGQGSLVTVSS
# VL: DIQMTQSPSSLSASVGDRVTITCRASQDISSYLNWYQQKPGKAPKLLIYYTSRLHSGVPSRFSGSGSGTDFTFTISSLQPEDIATYYCQQGNTLPYTFGQGTKVEIKR
# notes: IgG1; also called WT-IgG1; wild type humanized anti-IL-6 receptor antibody
# B3: Fv4-IgG1 (antibody)
# heavy: not shown
# light: DIQMTQSPSSLSASVGDSVTITCQASTDISSHLNWYQQKPGKAPELLIYYGSHLLSGVPSRFSGSGSGTDFTFTISSLEAEDAATYYCGQGNRLPYTFGQGTKVEIERTVAAPSVFIFPPSDEQLKSGTASVVCLLNNFYPREAKVQWKVDNALQSGNSQESVTEQDSKDSTYSLSSTLTLSKADYEKHKVYACEVTHQGLSSPVTKSFNRGEC
# notes: VH3-IgG1 / VL3-CK
# B4: H170/L82 (antibody, IgG1, V domains shown)
# VH: B1 VH with D32H, N59H, S63H, S99V, T103I, Y108H
# VL: B1 VL with H28D
# notes: expressed and purified as IgG (IgG1); also called H170/L82-IgG1
# Molecular target: T1, recombinant soluble human IL-6 receptor …
# Assay: SPR Biacore T100, antibody captured by anti-IgG gamma chain F(ab)2, SR344 analyte, pH 7.4, 37 C
# Protocol: Kinetic analyses of antigen-antibody reactions at pH 7.4 were carried out on the four types of antibodies, i.e., the humanized PM1 antibody (wild type: WT), and […], H3pI/L73-IgG1, Fv2-IgG1, and Fv4-IgG1 constructed in Examples 2 and 10, by using a Biacore T100™ surface plasmon resonance system (GE Healthcare) (buffer: 10 mM MES (pH 7.4), 150 mM NaCl, 0.05% TWEEN® 20 (polyoxyethelene sorbitan monolaurate)). Each antibody was bound on a sensor chip on which an anti-IgG γ chain specific F(ab)₂ (Pierce) was immobilized by amine coupling, and then, SR344 adjusted to a concentration of 9.8 to 40 nM was injected thereto as an analyte. The association to and dissociation from SR344 were observed on a real-time basis for the pH-dependent-binding clones. All the measurements were carried out at 37° C. Association rate constants kₐ (1/Ms) and dissociation rate constants kd (1/s) were calculated using Biacore T100™ Evaluation Software (GE Healthcare), and dissociation constants KD (M) were calculated on the basis of those values (Table 7).
Kd,koff,kon,Binder
1.4 nM,0.00059 s⁻¹,410000 M⁻¹ s⁻¹,B1
2.7 nM,0.0011 s⁻¹,400000 M⁻¹ s⁻¹,B2
1.4 nM,0.001 s⁻¹,720000 M⁻¹ s⁻¹,B3

# Molecular target: T1, recombinant soluble human IL-6 receptor …
# Assay: SPR Biacore T100, biotinylated SR344 on streptavidin chip (model of membrane IL-6 receptor), antibody 0.5 ug/mL as analyte, 37 C
# Protocol: (§1) The binding to membrane IL-6 receptor was evaluated by evaluating the binding to the IL-6 receptor immobilized onto a sensor chip. SR344 was biotinylated according to a method known to persons skilled in the art, and the biotinylated SR344 was immobilized on the sensor chip via streptavidin by utilizing the affinity between streptavidin and biotin. All the measurements were carried out at 37° C., and the mobile phase buffer contained 10 mM MES (pH 5.8), 150 mM NaCl and 0.05% TWEEN® 20 (polyoxyethelene sorbitan monolaurate). The pH-dependent binding clones were injected therein under the condition of pH 7.4 and allowed to bind to SR344 (injection sample buffer: 10 mM MES (pH 7.4), 150 mM NaCl, 0.05% TWEEN® 20 (polyoxyethelene sorbitan monolaurate)), and the pH-dependent dissociation of each clone at the mobile phase pH of 5.8 was observed (FIG. 10).
# (§2) The dissociation rate […]) at pH 5.8 was calculated using Biacore T100™ Evaluation Software (GE Healthcare) by fitting only the dissociation phase at pH 5.8, where 0.5 μg/mL of the sample was bound in 10 mM MES (pH 7.4), 150 mM NaCl, and 0.05% TWEEN® 20 (polyoxyethelene sorbitan monolaurate), and dissociated in 10 mM MES (pH 5.8), 150 mM NaCl, and 0.05% TWEEN® 20 (polyoxyethelene sorbitan monolaurate). Similarly, the dissociation rate (kd(1/s)) at pH 7.4 was calculated using Biacore T100™ Evaluation Software (GE Healthcare) by fitting only the dissociation phase at pH 7.4, where 0.5 μg/mL of the sample was bound in 10 mM MES (pH 7.4), 150 mM NaCl, and 0.05% TWEEN® 20 (polyoxyethelene sorbitan monolaurate), and dissociated in 10 mM MES (pH 7.4), 150 mM NaCl, and 0.05% TWEEN® 20 (polyoxyethelene sorbitan monolaurate).
row,kd ratio pH 5.8/pH 7.4,Binder
1,11,B1
2,1.9,B4
3,1.5,B2

# Molecular target: T1, recombinant soluble human IL-6 receptor …
# Assay: SPR Biacore T100, biotinylated SR344 on streptavidin chip (model of membrane IL-6 receptor), antibody 0.5 ug/mL as analyte, bound at pH 7.4, dissociation at pH 5.8, 37 C
# Protocol: as §1, §2
row,koff,Binder
1,0.00378 s⁻¹,B1
2,0.00144 s⁻¹,B4
3,0.000715 s⁻¹,B2

# Molecular target: T1, recombinant soluble human IL-6 receptor …
# Assay: SPR Biacore T100, biotinylated SR344 on streptavidin chip (model of membrane IL-6 receptor), antibody 0.5 ug/mL as analyte, bound at pH 7.4, dissociation at pH 7.4, 37 C
# Protocol: as §1, §2
row,koff,Binder
1,0.000344 s⁻¹,B1
2,0.00077 s⁻¹,B4
3,0.000484 s⁻¹,B2

# Molecular target: T1, recombinant soluble human IL-6 receptor …
# Assay: SPR Biacore T100, biotinylated SR344 on streptavidin chip (model of membrane-type IL-6 receptor), antibody 0.25 ug/mL as analyte, bound at pH 7.4, dissociation at pH 7.4, 37 C
row,koff,Binder
1,0.00026 s⁻¹,B1
2,0.00025 s⁻¹,B2
3,0.00047 s⁻¹,B3
